Results taken from PMC9482650, “Quantitative fragmentomics allow affinity mapping of interactomes” (Nature Communications, 2022).

How the values were obtained:
Experiment in all cases: holdup assay
Parameters in all cases: key: below the threshold = too weak to quantify, mostly under pKd 3.1 to 4
[1] = biological target: T1, LIN7A, O14910
T1 sequence (O14910 103-200, limits assumed, looked up): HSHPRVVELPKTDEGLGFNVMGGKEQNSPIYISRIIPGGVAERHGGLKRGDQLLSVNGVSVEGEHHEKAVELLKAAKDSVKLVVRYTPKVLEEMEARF

[2] = biological target: T2, GRIP1_2, Q9Y3R0
T2 sequence (Q9Y3R0 145-248, limits assumed, looked up): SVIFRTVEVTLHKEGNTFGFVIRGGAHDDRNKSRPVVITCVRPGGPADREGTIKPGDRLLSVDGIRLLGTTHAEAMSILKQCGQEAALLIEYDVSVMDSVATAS

[3] = biological target: NHERF2_2, Q15599
[4] = biological target: DLG2_2, Q15700
[5] = biological target: NOS1, P29475
[6] = biological target: T3, GRIP1_3, Q9Y3R0
T3 sequence (Q9Y3R0 247-346, limits assumed, looked up): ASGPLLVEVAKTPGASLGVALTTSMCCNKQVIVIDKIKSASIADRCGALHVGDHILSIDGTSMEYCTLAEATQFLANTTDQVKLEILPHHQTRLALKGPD

[7] = biological target: T4, TIAM2, Q8IVF5
T4 sequence (Q8IVF5 885-986, limits assumed, looked up): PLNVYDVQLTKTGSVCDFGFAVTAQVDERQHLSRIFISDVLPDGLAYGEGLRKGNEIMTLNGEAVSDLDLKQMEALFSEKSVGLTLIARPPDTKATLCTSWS

[8] = biological target: DLG5_1, Q8TDM6
[9] = biological target: T5, GRIP1_4, Q9Y3R0
T5 sequence (Q9Y3R0 467-571, limits assumed, looked up): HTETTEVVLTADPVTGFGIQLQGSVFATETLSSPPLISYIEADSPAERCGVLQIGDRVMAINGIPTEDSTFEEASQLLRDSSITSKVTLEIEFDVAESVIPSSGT

[10] = biological target: PDZRN4_1, Q6ZMN7
[11] = biological target: T6, LRRC7, Q96NW7
T6 sequence (Q96NW7 1440-1537, limits assumed, looked up): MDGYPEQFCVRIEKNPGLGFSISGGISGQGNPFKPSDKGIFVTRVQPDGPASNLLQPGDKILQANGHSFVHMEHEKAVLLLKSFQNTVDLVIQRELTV

[12] = biological target: FRMPD2_2, Q68DX3
[13] = biological target: T7, PARD3B_1, Q8TEW8
T7 sequence (Q8TEW8 196-299, limits assumed, looked up): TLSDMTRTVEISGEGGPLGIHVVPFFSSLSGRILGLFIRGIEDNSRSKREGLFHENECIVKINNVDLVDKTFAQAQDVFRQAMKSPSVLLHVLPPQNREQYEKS

[14] = biological target: GRIP2_3, Q9C0E4
[15] = biological target: GOPC, Q9HD26
[16] = biological target: T8, APBA1_1, Q02410
T8 sequence (Q02410 651-752, limits assumed, looked up): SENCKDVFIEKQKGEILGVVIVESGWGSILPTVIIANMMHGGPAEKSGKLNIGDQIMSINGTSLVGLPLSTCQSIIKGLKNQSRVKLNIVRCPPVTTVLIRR

[17] = biological target: ARHGEF12, Q9NZN5-2
[18] = biological target: Inadl_9, Q8NI35
[19] = biological target: PARD3_3, Q8TEW0
[20] = biological target: Inadl_8, Q8NI35
[21] = biological target: Inadl_2, Q8NI35
[22] = biological target: T9, APBA1_2, Q02410
T9 sequence (Q02410 742-832, limits assumed, looked up): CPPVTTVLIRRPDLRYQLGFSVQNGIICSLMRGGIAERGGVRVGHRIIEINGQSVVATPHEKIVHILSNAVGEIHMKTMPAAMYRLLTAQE

[23] = biological target: T10, PCLO, Q9Y6V0
T10 sequence (Q9Y6V0 4491-4600, limits assumed, looked up): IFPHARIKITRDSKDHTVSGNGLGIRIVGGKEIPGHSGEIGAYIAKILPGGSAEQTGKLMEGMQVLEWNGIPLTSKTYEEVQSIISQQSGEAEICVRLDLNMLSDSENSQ

[24] = biological target: PICK1, Q9NRD5
[25] = biological target: T11, HTRA4, P83105
T11 sequence (P83105 378-476, limits assumed, looked up): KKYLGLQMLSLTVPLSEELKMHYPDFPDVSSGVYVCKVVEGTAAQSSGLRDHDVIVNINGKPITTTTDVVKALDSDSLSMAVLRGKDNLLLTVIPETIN

[26] = biological target: MAGI2_2, Q86UL8
[27] = plain residues with an end cap or a label only (N-terminal biotin on a linker: ado-ado)
[28] = plain residues with an end cap or a label only (N-terminal biotin on a linker: ahx)
[29] = plain residues with an end cap or a label only (N-terminal biotin on a linker: (peg)3)

Sequence of NHERF2_2, Q15599 (Q15599 142-238): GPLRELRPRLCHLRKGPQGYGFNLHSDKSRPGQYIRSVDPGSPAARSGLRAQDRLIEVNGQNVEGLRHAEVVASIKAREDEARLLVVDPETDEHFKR
Sequence of PARD3_3, Q8TEW0 (Q8TEW0 582-685): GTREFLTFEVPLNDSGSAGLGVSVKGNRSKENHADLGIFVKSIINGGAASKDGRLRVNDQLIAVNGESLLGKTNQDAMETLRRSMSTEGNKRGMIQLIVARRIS
Sequence of PICK1, Q9NRD5 (Q9NRD5 17-115): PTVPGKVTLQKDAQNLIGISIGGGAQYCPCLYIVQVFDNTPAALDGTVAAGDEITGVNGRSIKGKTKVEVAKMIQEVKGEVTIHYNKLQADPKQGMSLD
Sequence of Inadl_9, Q8NI35 (Q8NI35 1530-1615): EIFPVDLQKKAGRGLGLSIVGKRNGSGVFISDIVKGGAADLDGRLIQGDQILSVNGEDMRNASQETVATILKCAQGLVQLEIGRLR
Sequence of GRIP2_3, Q9C0E4 (Q9C0E4 238-339): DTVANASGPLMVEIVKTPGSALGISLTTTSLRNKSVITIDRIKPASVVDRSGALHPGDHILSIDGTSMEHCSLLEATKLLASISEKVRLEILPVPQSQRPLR
Sequence of NOS1, P29475 (P29475 9-101): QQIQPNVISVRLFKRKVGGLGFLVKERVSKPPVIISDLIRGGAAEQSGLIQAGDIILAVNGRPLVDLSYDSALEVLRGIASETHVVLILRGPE
Sequence of DLG5_1, Q8TDM6 (Q8TDM6 617-713): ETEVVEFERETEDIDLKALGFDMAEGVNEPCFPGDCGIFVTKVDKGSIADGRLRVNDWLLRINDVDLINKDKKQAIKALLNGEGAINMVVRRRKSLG
Sequence of Inadl_2, Q8NI35 (Q8NI35 238-335): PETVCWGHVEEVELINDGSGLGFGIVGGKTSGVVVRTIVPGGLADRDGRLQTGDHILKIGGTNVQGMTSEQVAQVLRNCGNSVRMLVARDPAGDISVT
Sequence of DLG2_2, Q15700 (Q15700 189-283): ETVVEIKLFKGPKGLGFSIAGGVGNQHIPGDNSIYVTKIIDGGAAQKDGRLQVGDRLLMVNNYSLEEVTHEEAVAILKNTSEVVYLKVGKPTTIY
Sequence of PDZRN4_1, Q6ZMN7 (Q6ZMN7 213-318): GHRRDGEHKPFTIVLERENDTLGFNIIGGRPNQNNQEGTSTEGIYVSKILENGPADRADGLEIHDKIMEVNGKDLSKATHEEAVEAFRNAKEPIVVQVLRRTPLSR
Sequence of FRMPD2_2, Q68DX3 (Q68DX3 944-1038): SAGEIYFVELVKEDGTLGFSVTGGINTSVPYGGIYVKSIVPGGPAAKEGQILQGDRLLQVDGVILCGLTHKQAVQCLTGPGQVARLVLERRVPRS
Sequence of MAGI2_2, Q86UL8 (Q86UL8 410-522): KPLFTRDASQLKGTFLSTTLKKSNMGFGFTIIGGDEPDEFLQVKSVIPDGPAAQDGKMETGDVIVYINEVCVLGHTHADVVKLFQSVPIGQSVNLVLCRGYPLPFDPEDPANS
Sequence of Inadl_8, Q8NI35 (Q8NI35 1425-1530): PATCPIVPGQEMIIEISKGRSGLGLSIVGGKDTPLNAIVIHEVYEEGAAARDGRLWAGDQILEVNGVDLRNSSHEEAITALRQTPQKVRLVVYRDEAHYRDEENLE
Sequence of ARHGEF12, Q9NZN5-2 (Q9NZN5 other isoform, or with tags, fused parts or gaps): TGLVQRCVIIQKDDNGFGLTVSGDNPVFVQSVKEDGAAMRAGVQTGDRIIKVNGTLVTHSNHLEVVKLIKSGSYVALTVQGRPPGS

ARSAAASNYV [CLDN4, O14493] was tested, and the pKd [1, 27] was “below the threshold”, the pKd [2, 27] was “below the threshold” and the pKd [3, 27] was “below the threshold”. For the same binder, the pKd [4, 27] was “below the threshold”, the pKd [5, 27] was 3.82 and the pKd [6, 27] was “below the threshold”. The pKd [7, 27] was “below the threshold”, the pKd [8, 27] was “below the threshold” and the pKd [9, 27] was “below the threshold”. For the same binder, the pKd [10, 27] was 3.66, the pKd [11, 27] was “below the threshold” and the pKd [12, 27] was “below the threshold”. The pKd [13, 27] was 3.65, the pKd [14, 27] was “below the threshold” and the pKd [15, 27] was “below the threshold”. For the same binder, the pKd [16, 27] was “below the threshold”, the pKd [17, 27] was 3.73 and the pKd [18, 27] was 3.71. For the same binder, the pKd [19, 27] was 3.51, the pKd [20, 27] was 4.06 and the pKd [21, 27] was “below the threshold”. The pKd [22, 27] was 3.83, the pKd [23, 27] was “below the threshold” and the pKd [24, 27] was 4.15. For the same binder, the pKd [25, 27] was 3.98 and the pKd [26, 27] was 3.6.

QRPYRRGSEI [KCNJ18, B7U540] was tested, and the pKd [1, 27] was “below the threshold”, the pKd [2, 27] was “below the threshold” and the pKd [3, 27] was “below the threshold”. The pKd [4, 27] was “below the threshold”, the pKd [5, 27] was 3.56 and the pKd [6, 27] was “below the threshold”. For the same binder, the pKd [7, 27] was 4.11, the pKd [8, 27] was “below the threshold” and the pKd [9, 27] was “below the threshold”. For the same binder, the pKd [10, 27] was “below the threshold”, the pKd [11, 27] was “below the threshold” and the pKd [12, 27] was 3.73. For the same binder, the pKd [13, 27] was “below the threshold”, the pKd [14, 27] was “below the threshold” and the pKd [15, 27] was “below the threshold”. For the same binder, the pKd [16, 27] was “below the threshold”, the pKd [17, 27] was 3.74 and the pKd [18, 27] was “below the threshold”. The pKd [19, 27] was “below the threshold”, the pKd [20, 27] was 3.69 and the pKd [21, 27] was “below the threshold”. For the same binder, the pKd [22, 27] was 3.53, the pKd [23, 27] was “below the threshold” and the pKd [24, 27] was “below the threshold”. For the same binder, the pKd [25, 27] was “below the threshold” and the pKd [26, 27] was 3.8.

NISYRRESAI [KCNJ4, P48050] was tested, and the pKd [1, 27] was “below the threshold”, the pKd [2, 27] was “below the threshold” and the pKd [3, 27] was “below the threshold”. The pKd [4, 27] was 3.86, the pKd [5, 27] was 3.62 and the pKd [6, 27] was “below the threshold”. The pKd [7, 27] was 4.07, the pKd [8, 27] was “below the threshold” and the pKd [9, 27] was “below the threshold”. The pKd [10, 27] was 4.25, the pKd [11, 27] was “below the threshold” and the pKd [12, 27] was “below the threshold”. For the same binder, the pKd [13, 27] was “below the threshold”, the pKd [14, 27] was “below the threshold” and the pKd [15, 27] was “below the threshold”. The pKd [16, 27] was “below the threshold”, the pKd [17, 27] was “below the threshold” and the pKd [18, 27] was “below the threshold”. The pKd [19, 27] was “below the threshold”, the pKd [20, 27] was “below the threshold” and the pKd [21, 27] was “below the threshold”. The pKd [22, 27] was “below the threshold”, the pKd [23, 27] was “below the threshold” and the pKd [24, 27] was “below the threshold”. For the same binder, the pKd [25, 27] was “below the threshold” and the pKd [26, 27] was 4.74.

QDEKVKESYV [ABCA1, O95477] was tested, and the pKd [1, 28] was 3.89, the pKd [2, 28] was “below the threshold” and the pKd [3, 28] was 3.64. The pKd [4, 28] was 4.17, the pKd [5, 28] was 3.66 and the pKd [6, 28] was “below the threshold”. The pKd [7, 28] was “below the threshold”, the pKd [8, 28] was “below the threshold” and the pKd [9, 28] was “below the threshold”. The pKd [10, 28] was 3.95, the pKd [11, 28] was 4.13 and the pKd [12, 28] was 5.31. For the same binder, the pKd [13, 28] was “below the threshold”, the pKd [14, 28] was “below the threshold” and the pKd [15, 28] was 4.28. The pKd [16, 28] was “below the threshold”, the pKd [17, 28] was 4.27 and the pKd [18, 28] was 4.29. The pKd [19, 28] was “below the threshold”, the pKd [20, 28] was 4.68 and the pKd [21, 28] was 3.93. The pKd [22, 28] was 4.29, the pKd [23, 28] was “below the threshold” and the pKd [24, 28] was 3.76. For the same binder, the pKd [25, 28] was “below the threshold” and the pKd [26, 28] was 4.52.

With RYEDTTLVEDTVL [WNV-NS5, Q9Q6P4] the pKd [1, 29] was 3.59, the pKd [2, 29] was “below the threshold” and the pKd [3, 29] was 4.89. The pKd [4, 29] was “below the threshold”, the pKd [5, 29] was 3.64 and the pKd [6, 29] was “below the threshold”. The pKd [7, 29] was “below the threshold”, the pKd [8, 29] was “below the threshold” and the pKd [9, 29] was “below the threshold”. For the same binder, the pKd [10, 29] was 3.94, the pKd [11, 29] was 3.49 and the pKd [12, 29] was “below the threshold”. The pKd [13, 29] was 4.66, the pKd [14, 29] was “below the threshold” and the pKd [15, 29] was 3.71. The pKd [16, 29] was “below the threshold”, the pKd [17, 29] was 3.92 and the pKd [18, 29] was “below the threshold”. The pKd [19, 29] was 4.53, the pKd [20, 29] was “below the threshold” and the pKd [21, 29] was “below the threshold”. For the same binder, the pKd [22, 29] was “below the threshold”, the pKd [23, 29] was “below the threshold” and the pKd [24, 29] was “below the threshold”. For the same binder, the pKd [25, 29] was “below the threshold” and the pKd [26, 29] was “below the threshold”.

For QPRTWLQSPV [RTKN, Q9BST9], the pKd [1, 28] was “below the threshold”, the pKd [2, 28] was “below the threshold” and the pKd [3, 28] was “below the threshold”. For the same binder, the pKd [4, 28] was 4.71, the pKd [5, 28] was 3.6 and the pKd [6, 28] was “below the threshold”. The pKd [7, 28] was “below the threshold”, the pKd [8, 28] was “below the threshold” and the pKd [9, 28] was “below the threshold”. For the same binder, the pKd [10, 28] was “below the threshold”, the pKd [11, 28] was 3.73 and the pKd [12, 28] was “below the threshold”. For the same binder, the pKd [13, 28] was “below the threshold”, the pKd [14, 28] was “below the threshold” and the pKd [15, 28] was 4.07. For the same binder, the pKd [16, 28] was “below the threshold”, the pKd [17, 28] was 3.99 and the pKd [18, 28] was “below the threshold”. The pKd [19, 28] was “below the threshold”, the pKd [20, 28] was 4.89 and the pKd [21, 28] was “below the threshold”. For the same binder, the pKd [22, 28] was “below the threshold”, the pKd [23, 28] was “below the threshold” and the pKd [24, 28] was “below the threshold”. The pKd [25, 28] was “below the threshold” and the pKd [26, 28] was 4.39.
